Each binder was assayed against T1, MHC class I allele A*0301 (bound via biotin to streptavidin-coated plate) (assay: iTopia peptide binding assay).
T1 construct: iTopia MHC class I monomer on the plate; placeholder peptide and b2M removed, then reconstituted with test peptide and fresh b2M; also called A3; HLA A3
Protocol: (§1) The 9 mers were tested for Peptide Binding, Off Rate and Affinity using iTopia Epitope Discovery System in accordance with the manufacturer's instructions. Briefly, 96 well microtitre plates coated with MHC molecules representing different MHC alleles are used to identify candidate peptides. […] Determinations are performed in duplicate using an ELISA plate reader and included allele specific positive controls.
(§2) i) Peptide Binding—This assay measures the ability of individual peptides to bind to the MHC molecules under standardized optimal binding conditions. The assay is performed for all the test peptides across the selected MHC alleles. The test peptides identified as “binders” are characterized further in terms of affinity and dissociation experiments.

Binder | % of positive control peptide binding
PAAGDGRLR (also called Peptide No 5) [5T4 9 mer peptide 5 PAAGDGRLR] | 4%
AGAFEHLPS (also called Peptide No 68) [5T4 9 mer peptide 68 AGAFEHLPS] | 3%
AFEHLPSLR (also called Peptide No 69) [5T4 9 mer peptide 69 AFEHLPSLR] | 11%
LPSLRQLDL (also called Peptide No 71) [5T4 9 mer peptide 71 LPSLRQLDL] | 0%
LPSLRHLDL (also called Peptide No 117) [5T4 9 mer peptide 117 LPSLRHLDL] | 1%
SLRQLDLSH (also called Peptide No 72) [5T4 9 mer peptide 72 SLRQLDLSH] | 11%
RQLDLSHNP (also called Peptide No 73) [5T4 9 mer peptide 73 RQLDLSHNP] | 2%
HNPLADLSP (also called Peptide No 76) [5T4 9 mer peptide 76 HNPLADLSP] | 3%
PLADLSPFA (also called Peptide No 77) [5T4 9 mer peptide 77 PLADLSPFA] | 0%
PFAFSGSNA (also called Peptide No 80) [5T4 9 mer peptide 80 PFAFSGSNA] | 3%
AFSGSNASV (also called Peptide No 81) [5T4 9 mer peptide 81 AFSGSNASV] | 2%
SGSNASVSA (also called Peptide No 82) [5T4 9 mer peptide 82 SGSNASVSA] | 3%
VSAPSPLVE (also called Peptide No 85) [5T4 9 mer peptide 85 VSAPSPLVE] | 7%
ILNHIVPPE (also called Peptide No 90) [5T4 9 mer peptide 90 ILNHIVPPE] | 4%
NHIVPPEDE (also called Peptide No 91) [5T4 9 mer peptide 91 NHIVPPEDE] | 3%
IVPPEDERQ (also called Peptide No 92) [5T4 9 mer peptide 92 IVPPEDERQ] | 3%
PPEDERQNR (also called Peptide No 93) [5T4 9 mer peptide 93 PPEDERQNR] | 0%
EDERQNRSF (also called Peptide No 94) [5T4 9 mer peptide 94 EDERQNRSF] | 4%

What follows are binders tested against T2, MHC class I allele B*0702 (bound via biotin to streptavidin-coated plate) (assay: iTopia peptide binding assay).
T2 construct: iTopia MHC class I monomer on the plate; placeholder peptide and b2M removed, then reconstituted with test peptide and fresh b2M; also called B7; HLA B7
Protocol: as §1, §2

Binder | % of positive control peptide binding
PAAGDGRLR (also called Peptide No 5) [5T4 9 mer peptide 5 PAAGDGRLR] | 5%
AGAFEHLPS (also called Peptide No 68) [5T4 9 mer peptide 68 AGAFEHLPS] | 7%
AFEHLPSLR (also called Peptide No 69) [5T4 9 mer peptide 69 AFEHLPSLR] | 0%
LPSLRQLDL (also called Peptide No 71) [5T4 9 mer peptide 71 LPSLRQLDL] | 82%
LPSLRHLDL (also called Peptide No 117) [5T4 9 mer peptide 117 LPSLRHLDL] | 96%
SLRQLDLSH (also called Peptide No 72) [5T4 9 mer peptide 72 SLRQLDLSH] | 13%
RQLDLSHNP (also called Peptide No 73) [5T4 9 mer peptide 73 RQLDLSHNP] | 4%
HNPLADLSP (also called Peptide No 76) [5T4 9 mer peptide 76 HNPLADLSP] | 5%
PLADLSPFA (also called Peptide No 77) [5T4 9 mer peptide 77 PLADLSPFA] | 10%
PFAFSGSNA (also called Peptide No 80) [5T4 9 mer peptide 80 PFAFSGSNA] | 7%
AFSGSNASV (also called Peptide No 81) [5T4 9 mer peptide 81 AFSGSNASV] | 14%
SGSNASVSA (also called Peptide No 82) [5T4 9 mer peptide 82 SGSNASVSA] | 11%
VSAPSPLVE (also called Peptide No 85) [5T4 9 mer peptide 85 VSAPSPLVE] | 3%
ILNHIVPPE (also called Peptide No 90) [5T4 9 mer peptide 90 ILNHIVPPE] | 7%
NHIVPPEDE (also called Peptide No 91) [5T4 9 mer peptide 91 NHIVPPEDE] | 5%
IVPPEDERQ (also called Peptide No 92) [5T4 9 mer peptide 92 IVPPEDERQ] | 3%
PPEDERQNR (also called Peptide No 93) [5T4 9 mer peptide 93 PPEDERQNR] | 0%
EDERQNRSF (also called Peptide No 94) [5T4 9 mer peptide 94 EDERQNRSF] | 4%

The binders below were run against T3, MHC class I allele A*0101 (bound via biotin to streptavidin-coated plate) (assay: iTopia peptide binding assay).
T3 construct: iTopia MHC class I monomer on the plate; placeholder peptide and b2M removed, then reconstituted with test peptide and fresh b2M; also called A1; HLA A1
Protocol: as §1, §2

Binder | % of positive control peptide binding
PAAGDGRLR (also called Peptide No 5) [5T4 9 mer peptide 5 PAAGDGRLR] | 4%
AGAFEHLPS (also called Peptide No 68) [5T4 9 mer peptide 68 AGAFEHLPS] | 6%
AFEHLPSLR (also called Peptide No 69) [5T4 9 mer peptide 69 AFEHLPSLR] | 1%
LPSLRQLDL (also called Peptide No 71) [5T4 9 mer peptide 71 LPSLRQLDL] | 0%
LPSLRHLDL (also called Peptide No 117) [5T4 9 mer peptide 117 LPSLRHLDL] | 0%
SLRQLDLSH (also called Peptide No 72) [5T4 9 mer peptide 72 SLRQLDLSH] | 0%
RQLDLSHNP (also called Peptide No 73) [5T4 9 mer peptide 73 RQLDLSHNP] | 2%
HNPLADLSP (also called Peptide No 76) [5T4 9 mer peptide 76 HNPLADLSP] | 5%
PLADLSPFA (also called Peptide No 77) [5T4 9 mer peptide 77 PLADLSPFA] | 1%
PFAFSGSNA (also called Peptide No 80) [5T4 9 mer peptide 80 PFAFSGSNA] | 0%
AFSGSNASV (also called Peptide No 81) [5T4 9 mer peptide 81 AFSGSNASV] | 2%
SGSNASVSA (also called Peptide No 82) [5T4 9 mer peptide 82 SGSNASVSA] | 5%
VSAPSPLVE (also called Peptide No 85) [5T4 9 mer peptide 85 VSAPSPLVE] | 3%
ILNHIVPPE (also called Peptide No 90) [5T4 9 mer peptide 90 ILNHIVPPE] | 5%
NHIVPPEDE (also called Peptide No 91) [5T4 9 mer peptide 91 NHIVPPEDE] | 6%
IVPPEDERQ (also called Peptide No 92) [5T4 9 mer peptide 92 IVPPEDERQ] | 6%
PPEDERQNR (also called Peptide No 93) [5T4 9 mer peptide 93 PPEDERQNR] | 0%
EDERQNRSF (also called Peptide No 94) [5T4 9 mer peptide 94 EDERQNRSF] | 0%

What follows are binders tested against T4, MHC class I allele A*0201 (bound via biotin to streptavidin-coated plate) (assay: iTopia peptide binding assay).
T4 construct: iTopia MHC class I monomer on the plate; placeholder peptide and b2M removed, then reconstituted with test peptide and fresh b2M; also called A2; HLA A2
Protocol: as §1, §2

Binder | % of positive control peptide binding
PAAGDGRLR (also called Peptide No 5) [5T4 9 mer peptide 5 PAAGDGRLR] | 5%
AGAFEHLPS (also called Peptide No 68) [5T4 9 mer peptide 68 AGAFEHLPS] | 10%
AFEHLPSLR (also called Peptide No 69) [5T4 9 mer peptide 69 AFEHLPSLR] | 11%
LPSLRQLDL (also called Peptide No 71) [5T4 9 mer peptide 71 LPSLRQLDL] | 27%
LPSLRHLDL (also called Peptide No 117) [5T4 9 mer peptide 117 LPSLRHLDL] | 16%
SLRQLDLSH (also called Peptide No 72) [5T4 9 mer peptide 72 SLRQLDLSH] | 6%
RQLDLSHNP (also called Peptide No 73) [5T4 9 mer peptide 73 RQLDLSHNP] | 8%
HNPLADLSP (also called Peptide No 76) [5T4 9 mer peptide 76 HNPLADLSP] | 7%
PLADLSPFA (also called Peptide No 77) [5T4 9 mer peptide 77 PLADLSPFA] | 67%
PFAFSGSNA (also called Peptide No 80) [5T4 9 mer peptide 80 PFAFSGSNA] | 13%
AFSGSNASV (also called Peptide No 81) [5T4 9 mer peptide 81 AFSGSNASV] | 55%
SGSNASVSA (also called Peptide No 82) [5T4 9 mer peptide 82 SGSNASVSA] | 15%
VSAPSPLVE (also called Peptide No 85) [5T4 9 mer peptide 85 VSAPSPLVE] | 13%
ILNHIVPPE (also called Peptide No 90) [5T4 9 mer peptide 90 ILNHIVPPE] | 63%
NHIVPPEDE (also called Peptide No 91) [5T4 9 mer peptide 91 NHIVPPEDE] | 11%
IVPPEDERQ (also called Peptide No 92) [5T4 9 mer peptide 92 IVPPEDERQ] | 12%
PPEDERQNR (also called Peptide No 93) [5T4 9 mer peptide 93 PPEDERQNR] | 2%
EDERQNRSF (also called Peptide No 94) [5T4 9 mer peptide 94 EDERQNRSF] | 2%

Source: US20090280138A1 (OXFORD BIOMEDICA UK, published 2009)
